One molecule from PMC8386582 (Biomaterials, 2020) can be followed below.

The target in the test is CD19 (Homo sapiens (Raji, SU-DHL-7 cells), UniProt P15391). The test can be described thus: flow cytometry on cells.
CD19, sequence (P15391 20-556): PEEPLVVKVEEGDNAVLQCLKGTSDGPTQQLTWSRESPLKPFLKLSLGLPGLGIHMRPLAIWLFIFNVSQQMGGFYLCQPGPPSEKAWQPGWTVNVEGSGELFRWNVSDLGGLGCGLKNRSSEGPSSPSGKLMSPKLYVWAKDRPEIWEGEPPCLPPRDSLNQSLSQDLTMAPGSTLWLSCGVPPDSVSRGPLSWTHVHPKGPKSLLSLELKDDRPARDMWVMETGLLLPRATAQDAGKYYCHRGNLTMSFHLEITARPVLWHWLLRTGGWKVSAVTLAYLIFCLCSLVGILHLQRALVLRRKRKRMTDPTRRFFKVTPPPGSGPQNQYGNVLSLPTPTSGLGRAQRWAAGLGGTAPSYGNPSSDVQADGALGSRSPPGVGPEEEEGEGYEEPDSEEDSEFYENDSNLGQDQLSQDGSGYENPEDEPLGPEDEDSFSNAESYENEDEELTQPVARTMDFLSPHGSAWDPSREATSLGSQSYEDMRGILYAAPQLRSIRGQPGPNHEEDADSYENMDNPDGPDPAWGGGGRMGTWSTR

B1: aCD19A (anti-CD19-A192) Nanoworm (scFv, V domains shown)
VH: QVQLQQSGAELVRPGSSVKISCKASGYAFSSYWMNWVKQRPGQGLEWIGQIWPGDGDTNYNGKFKGKATLTADESSSTAYMQLSSLASEDSAVYFCARRETTTVGRYYYAMDYWGQGTTVTVSS
VL: DIQLTQSPASLAVSLGQRATISCKASQSVDYDGDSYLNWYQQIPGQPPKLLIYDASNLVSGIPPRFSGSGSGTDFTLNIHPVEKVDAATYHCQQSTEDPWTFGGGTKLEIK
In the case of B1, the binding result was “binds”.
